First the molecules themselves.
B1: mAb2-4 (antibody, V domains shown)
VH: EVQLLESGGGLVHPGGSLRLSCAASGFPFSNFAMSWVRQAPGKGLEWVSTISGSSGSTYYADSVRGRFTISRDYSKNTVYLEMNSLRADDTAIYYCAKDRMITFGEVIVKHYDAFEIWGQGTRVAV
VL: DIQMTQSPSSLSASVGDRVTITCRASQTISTNVNWYQQKPGKAPKLLIYAASSLQSGVPSRFSGSGSGTDFTLTISSLQPEDFATFYCQQSYSAPLTFGEGTKV
B2: mAb3-1 (antibody, V domains shown)
VH: EVQLLESGGGLVQPGGSLRLSCEASGFTFSRYPMNWVRQAPGKGLEWVSHISASGGTTYYADTVKGRFSISRDNSKNTLYLEMNSLRAEDTAIYFCAKDYPPDEVTMIVVGMPYFDSWGLGTLVSVSS
VL: not shown
B3: mAb3-6 (antibody, V domains shown)
VH: EVQLVESGGGLVQPGGSLRLSCSASGFHFSSYEMNWVRQAPGKGLEWVSYISSSGTYIDYADSVKGRFTISRDNPANSLYLQMYSLRAEDTAVYYCARRLWFGELPYSYYYGMDVWGQGTTVTVSS
VL: ALTQPASVSGSPGQSITISCTGTSSDIGGYNYVSWYQQHPGKAPELLIFDVSNRPSGVSNRFSGSKSGNTASLTISGLQAEDEADYHCCSYTRTSTVIFGGGTKLTVL
B4: mAb2-6 (antibody, V domains shown)
VH: VQLLESGGALVQPGGSLRLSCAASGFSFSNYAMSWVRQAPGKGLEWVSTISASGGTTYFADSVKGHFTISRDNSKNTLYLQMDSLRAEDTAVYYCAKDPNYYDLSGYFLGGYYFDYWGQGTLVTVSS
VL: EIVLTQSPGTLSLSPGERATLSCRASQSVRSSYLAWYQQKPGQAPRLLIYGASSRATDIPDRFSGSGSGTDFTLTISRLEPEDFAVYYCQQYGTSPAFGGGTKV
B5: mAb1-4 (antibody, V domains shown)
VH: QVQVVESGAEVKKPGASVKVSCKASGYAFTTYYMHWVRQAPGQGLEWMGLINPSGDSITYAQRFQGRVTMTKDTSTSTVYMELSSLRSEDTAIYYCARDPNVAFYYGSGNYYKDNAMDVWGQGTTVTVSS
VL: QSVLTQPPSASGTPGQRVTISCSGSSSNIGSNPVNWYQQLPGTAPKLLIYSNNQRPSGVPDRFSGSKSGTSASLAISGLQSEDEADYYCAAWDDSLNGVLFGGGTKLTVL
B6: mAb2-1 (antibody, V domains shown)
VH: EVQLLESGGGLVQPGKSLRLSCAASGFSFSNYAMSWVRQAPGKGLEWVSGISGSGGSTNYAESVRGRFTISRDNSKNTLYLEMNSLRVEDTAVYYCAKGMSYYDRSGYFWAKYHYGMDVWGQGITVTVSS
VL: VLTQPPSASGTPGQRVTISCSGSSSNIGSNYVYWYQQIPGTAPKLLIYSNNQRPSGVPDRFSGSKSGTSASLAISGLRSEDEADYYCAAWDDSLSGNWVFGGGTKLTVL
B7: mAb2-2 (antibody, V domains shown)
VH: QVQLQESGPGLVKPSVTLSLTCTVSGDSISTYYWSWVRQPPGKGLEWIGYIYYSGNTNYNPSLKSRVTMSVDTSKNQFSLKLNSVTAADTAVYYCARTHHDYGDYRPSYYFDYWGQGTLVTVSS
VL: QSALTQPASVSGSPGQSITISCTGTSSDVGAYDYVSWYQQHPGKAPKLMIYDVSNRPSSGVSNRFSGSKSGNTASLTISGLQAEDEADYYCSSYTSSSTVILGGGTKLTVL
B8: mAb1-5 (antibody, V domains shown)
VH: EVQLVESGGGLVKPGGSLRLSCAASGFMFSSYSMNWVRQAPGKGLEWVSSISRSDSYIDYADSVKGRFTISRDTAMNVLYLQMDSLRAEDTGVYYCARTHVFNMFREVINDDYYGMDVWGQGTTVTVS
VL: ALTQPASVSGSPGQSITISCTGTSSDFGIYNSVSWYQHHPGKAPKLMIFGVSNRPSGVSNRFSGSKSGNTASLSISGLQAEDEADYYCSSFTARSTVVFGGGTKLTVL
B9: mAb2-3 (antibody, V domains shown)
VH: VQLVESGGGLVKPGGSLRLSCATSGFTFSDYYMSWIRQAPGKGLEWVSYISSSGSTIYYADSVKGRFTMSRDNAKNSLFLRMNSLRAEDTAVYYCARDQITVDREVIRAHYYYGMDVWGQGTTVTVS
VL: DIQMTQSPSSVSASVGDRVTITCRASQGINSYLAWYQQKPGKAPKLLIYAASSLESGVPSRFSGSGSGTDFTLTISSLQPEDFATYYCQQANSFPLTFGGGTKVDI
B10: mAb2-5 (antibody, V domains shown)
VH: EVQLVESGGGLVKPGGSPRLSCAASGFNFGSYSMNWVRQAPGKGLEWVSSISSSSSYIYYADSVKGRFTISRDNAKHSLYLQVNSLRAEDTAVYYCARDPTTYGYNSAWDKKGWYFDLWGRGTLLTVS
VL: VLTQPPSVSAAPGQMVTISCSGSSSNIGNDYISWYQQLPGTAPKLLIYDNNERPSGIPDRFSGSKSGTSATLGITGVQTGDEADYYCGTWDSSLSAWVFGEGTKLTVV
B11: mAb1-7 (antibody, V domains shown)
VH: QVQLQESGPGLVKPSETLSLTCTVSGDSIRSYYWSWIRQPPGKGLEWIGHIYYSGSTNYKPSLKSRATILVDTSKNQFSLKLRSVTAADTAVYYCAREMTGVAGRGWDHWGQGTLVTVSS
VL: ALTQPPSASGTPGQRVTISCSGSSSNIGSNTVNWYQQLPGTAPKLLIFINNQRPSGVPDRFSGSKSGTSASLAISGLQSEDEADYYCTTWDGSLNGYVFGTRTEVTVL
B12: mAb1-3 (antibody, V domains shown)
VH: VQLVESGGGVVQPGRSLRLSCAASGFSFSSFVFHWVRQAPGKGLEWVAVISYDGSNKNYADSVKGRFTISRDNSKNTLFLQMNSLSADDTAVYYCARGAICSSTTCYLGDSYYFYGMDVWGQGTTVTVSS
VL: LTQPPSVSGAPGQRVTISCTGSRSNIGAGYDVHWYQQLPGTAPKLLIYGNSNRPSGVPDRFSGSKSGTSASLAITGLQTDDEADYYCQSYDSSLSGSVFGGGTKLTVL
B13: mAb3-2 (antibody, V domains shown)
VH: EVQLLESGGGLVQPGGSLRLSCAASGFTFSNYAMSWVRQAPGKGLEWVSLISGSGGSIDYADSVKGRFTISRDNSKNTLYLQMDSLRAEDTAVYYCSKDPIYYDLSGYYAGRIYYFDYWGQGTLVTVSS
VL: EIVMTQSPATLSVSPGDTATLSCRASHSVSRDLAWYQQKPGQAPRLLIYDASTRATGIPARFSGSGSGTEFTLTISSLQSEDFAVYYCQQYINWVTFGPGTKVDIE
B14: mAb3-4 (antibody, V domains shown)
VH: AVESGGGLVKPGGPLRLSCAASGFSLSDNYMTWIRQAPGKGLEWVSYISSSGSFINYADSVKGRFTISRDNAKNSLYLQMNSLRAEDTAVYYCARVLSSGGLTTSWRALWYFDVWGRGTLVTVS
VL: TVVTQEPSFSVSPGGTVTLTCGLTSGSVSTSYYPSWYQQTPGQTPRTLIYSTNIRSSGVPDRFSGSILGNKAALTITGAQADDECDYYCVLYMGSGIWVFGGGTKLTVL
B15: mAb3-5 (antibody, V domains shown)
VH: EVQLVESGGGLVQPGGSLRLSCAASGFTFSNYGMNWVRQAPGKGLEWVSYISSGGTIYYADSVKGRFTISRDNAKNSVYLQMNSLRAEDTAVYYCARDPAYCGDDCYTIPAHYFDYWGQGTPVTVS
VL: DIQMTQSPSSLSASVGDRVTITCRTSQSISRYLNWYQQKPGKAPKLLIYAASSLQSGVPSRFTGSGSGTDFTLTISSLQPEDFATYYCQQSYSIPPVTFGQGTRVD
B16: mAb3-7 (antibody, V domains shown)
VH: QVQLQESGPGLVKPSETLSLTCTVSGGSISNYYWNWIRQPPGKGLEWIGYVHYSGSTNYNPSLKSRVSVSVDTSKNQFSLNLGSVTAADTAVYYCARQSRSYYNEVITDPKYNFDYWGQGTLVTVSS
VL: QSALTQPASVSGSPGQSITISCTGTSSDVGGYDYVSWYQQHPGKAPKLMIYDVSNRPSGVSNRFSGSKSGNTASLTISGLQAEDEADYYCSSYTSISTLVFGGGTKLTVL
B17: mAb1-1 (antibody, V domains shown)
VH: EVQLVESGGGLVKPGGSLRLSCAASGVPFSDAWMNWVRQAPGKGLEWVGRIKSKKDGGTADYAAPVKGRFSISRDDSKKMLYLHMNSLKTEDTAVYYCTTEPSGYCSNGLCYTGNYWGQGTLVTVSS
VL: QPVLTQSSSASASLGSSVKLTCTLSSGHITYIIAWHQQQPGKAPRYLMKLEDSGSYNKGSGVPDRFSGSSSGADRYLTISNLQFEDEADYYCETWDSYTRVFGGGTKLT
B18: mAb3-3 (antibody, V domains shown)
VH: QVQLQESGPGLVKSSETLSLTCTVSGESISSSSHYWGWIRQPPGKGLEFLGNVYYLGSTYYNPSLESRVTILLDTSKNQFSLKVNSVTVADTAVYYCARHGAGSYSGLFFDYWGQGARVIVSS
VL: DIQMTQSPSFVSASVGDRVNITCRASQGINSWLAWYQQKPGKAPKLLIYSASSLQSGVPSRFSGSGSGTDFTLTISTLQPEDFATYYCQQANSFPYTFGQGTKVD
B19: mAb1-2 (antibody, V domains shown)
VH: EVQLVESGGGLVQPGGSLRLSCAASGFIFSNYWMSWVRQAPGKGPEWVANIKQDGSANHYVDSVKGRFTISRDNAKNSLYLQMNSLRAEDTAVYYCAREAYQDWNYDYWGQGTLVTVSS
VL: DIQMTQSPSSLSASVGDRVTVTCRASEFISRYLNWYQQKPGKAPKVLIYAASSLQSGVPSRFSGSGSGTDFTLTISSLQPEDFATYYCQQSYSTPYTFGQGTKLEIK
notes: also called Fab1-2 (so named in the dot blot sentence)

This assay concerns the target T1, AAV9 capsid (adeno-associated virus serotype 9, UniProt Q6JC40).
T1 construct: also called wtAAV9; AAV9 vector; copies: 60
Kind of assay: far-Western, overlay or dot blot; native dot immunoblot: native capsids adsorbed onto nitrocellulose; human mAbs at ~1 µg/ml in PBS with 6% milk, 0.1% Tween-20, 1 h; anti-human-HRP. The note with it: both partners purified.
B1: the binding result is “binds”.
Regarding B2, the binding result was “binds”.
Regarding B3, the binding result is reported as “binds”.
On to B4, for which the binding result is reported as “binds”.
Turning to B5, the binding result was “binds”.
In the case of B6 it was “binds”.
As for B7, the binding result is recorded as “binds”.
As for B8, the binding result was “binds”.
Consider B9, for which the binding result is recorded as “binds”.
As to B10, the binding result is “binds”.
Turning to B11, the binding result is “binds”.
On to B12, for which the binding result is “binds”.
The entry for B13 is “binds”; for B14 it is “binds”; for B15 it is “binds”.
In the case of B16, the binding result is reported as “binds”.
For B17, the binding result was “binds”.
As to B18, the binding result is given as “binds”.
In the case of B19 it was “binds”.

The values above are taken from publication PMC12009303, “Structural characterization of antibody-responses following Zolgensma treatment for AAV capsid engineering to expand patient cohorts” (Nature Communications, 2025).
